According to the supplement of paper PMC12764529:
± gives the half width of the 95% confidence interval.

assay: folding stability dG unfold (combined trypsin and chymotrypsin); higher = more stable
Procedure, shortened: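 Unfolding free energy was derived, per protease or combined, by relating Bayesian-fitted K50 values from sequencing counts to a sequence-predicted unfolded-state K50 and a shared folded-state K50. The underlying digests exposed cysteine-free mini-proteins under 80 residues, in a PA-tagged cDNA display construct, to trypsin and chymotrypsin at 11 threefold-diluted concentrations and to a no-protease condition. A filter kept only designs with AlphaFold2 dimer inter-PAE above 15.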

Row | Sequence | folding stability dG unfold [kcal/mol]
1 | SAGGKKYYLIKITVKTEKKEYTLPDGSKVTVEKTYELTIIVESKEEAEKLAEELAKKYNLEVEIVPLSAGGS [r8_131_TrROS_Hall] | 4.51 ± 0.13
2 | SAGGSVVPASEPVTIPDTATGTTLTLPTPAGATITPDPATNTTTVTFTDGDRASSVTFVNGAATSASTASAG [r5_22_JUSTAS] | -0.162 ± 0.11
3 | SAGGSAGGSNMPPGMEVEMEPIIEREIKNPNGRKLKIKIYVMKIRPPGGPPMFFIALDIQILDSAGGSAGGS [r12_544_TrROS] | 4.52 ± 0.22
4 | SMEELLEKALEEAKEAAEKGEKTVIIEIRVDGKTFRIEIDVETGEIVKIEKEKREDGSEIFRIEIKLPEPSA [r9_308_TrROS_Hall] | 1.3 ± 0.39
5 | SAGGSAGGSAMYVKVTFTYPDGSTTTVTTQLDEEEAKKLVEELAPLPVEAKLEIIPEDVPESAGGSAGGSAG [r3_35_JUSTAS] | 0.655 ± 0.17
6 | SAGGEKLETFPFKGDDDREVTLVRFEGEDRILLLVYDPDTDKVLLIAPDAIAEIDLKTGEAKVILKKSSAGG [r13_416_TrMRF] | 1.98 ± 0.049
7 | SAGGSAPPQTIPIIIKDPNGKVRIEPVQFDPGPGNFNWDIEHPNGEKHTITFTGPPDDLPPGDYIKSAGGSA [r15_596_TrROS] | 0.784 ± 0.17
8 | SAETTTETKVEEITLEDKKATINITTYSDGSTEATITIYGNDPKVKEKVKEYIKKKDPNIKITKIETKESAG [r14_611_JUSTAS] | 2.92 ± 0.093
9 | SAGGSKKIVKEMKSKEVIDLAKKLKEKKDIIIVVKLNGKVKVLDLDKVKPIPDKNVKAIIEIKPKKKSAGGS [r16_628_TrMRF] | 0.745 ± 0.29
10 | SAGGSAGGSAGMETPVLYNVTVTPPDGSTTTYTVPEGLSEEEIRALLNVPASDTITFSPVSAGGSAGGSAGG [r11_340_JUSTAS] | 1.99 ± 0.033
11 | SAGGDEIVDRIKQAFHNFGYPVRIDDISPPNGKIYIRISPAMRENMKPAIIEIPFPGIKDITIEMWPSAGGS [r8_318_TrROS] | 1.53 ± 0.17
12 | SAGGMKYLIKIEVDGKEIEIEAESLEEAEELAKKLEEEGIEIEVKKIEIYELPEEEEEEEEEKKKKESAGGS [r8_336_TrROS_Hall] | 1.85 ± 0.21
13 | SAGGSAGGSAGGKKTLKLPVKITPVKDGLLITLPDGTPILVPKNVTVETTDTTAYVTIGSAGGSAGGSAGGS [r10_305_TrMRF] | 0.0124 ± 0.2
14 | SAGGSAGGSAGGSMLVTEVSISPLPNGTVKVTTKLVLEPPDGVSVLEEESSVVSPEELSSAGGSAGGSAGGS [r4_389_JUSTAS] | 0.484 ± 0.099
15 | SAGGKWIMFMIPPGEEIEDPNGLEIRYDPEEGEFEIENNKRPVKIPVHPHPDGWYMITIEIPPGVEVSAGGS [r16_245_TrROS] | 1.55 ± 0.22
16 | SMKIYILSSGDKEKVLAEVKEKYPDLEIELFEDIEEAKKAAEKGNLLISNGDEELAKEFEEKYNVKVIIKSA [r9_380_JUSTAS] | 1.6 ± 0.14

Row | Sequence | folding stability dG unfold [kcal/mol]
17 | SLTLTDPVLVLVEVDLYNPETGAPTKRSLAVLVPPGTPVTVTLPGVHPDARVRVTVYTPNGKPLGEFELPSA [r9_478_TrMRF] | 2.26 ± 0.14
18 | SDDKNMKPVKFKVEIEEERIEENGKKYIKIEVTWPGGNTVKIWFDPDKLIITFPVRSVEDVLEEVKDLIKSA [r9_662_TrROS] | 3.06 ± 0.085
19 | SAMKLEAPVVLDGKPVEVEFDAEPFEAPDGDVYYLVPLKVTFPDGRTYTARLRLKPGGKIVSVELLSDESAG [r14_341_TrMRF] | 1.77 ± 0.061
20 | SAGGNMWEQIRMIVRELAKEGHPWITFDKIHKELGRPITPEWREWLRDAGFIEHDPNGSMTFRIPPGASAGG [r13_188_TrROS] | 1.17 ± 0.056
21 | SAGGWRIKLERDPENGKIKVSIERSPNEGYATVEVKLPNGKPLEIPGPMDSPDEMEEKARDYIKKLLSAGGS [r16_319_TrROS] | 0.991 ± 0.1
22 | SAGGSAGGSAGREIADEIKDILQEKGFEIKDIEVTRPPNGYPMVEITVRHDNGKKWTIWISAGGSAGGSAGG [r11_780_TrROS] | 1.76 ± 0.099
23 | SAGAATINPNPLTLEIESPDGTKYTVSPEEVQKIKDELEAKGKPPTLEEILNEIKKRFPNWRVSYSPESAGG [r19_46_JUSTAS] | 3.44 ± 0.058
24 | SAGGSAGGSAGMLETIELPDGKRVRYDPVTGEWFVELDPELEEEVRERLDPDLPVRFEEVSAGGSAGGSAGG [r11_374_JUSTAS] | 1.62 ± 0.057
25 | SMTLIVRVEVENENGEKIEKEVEVEVEPGETIEELLKKLNLSEEEVKKVKIEVYVIKDGKLEKKEFTLEKSA [r9_755_TrROS_Hall] | 2.29 ± 0.35
26 | SAGGMPVLEREFTIPLPDGTPLRVTVRYFPGTGRALVTLRPVGTGEPLATVPLSELPPELRAALAEESAGGS [r8_32_TrMRF] | 2.9 ± 0.052
27 | SAGGSPPPVEVTPITHINGGEPVPTRVETYPDGTVTVHITLPDGSSGTLPAEELAELLAAPGSLGDFSAGGS [r16_105_JUSTAS] | 0.805 ± 0.045
28 | SAGGSAGGSAGGSNIEIEYNPNMMTIRIEPGDKPIEIQIKSPMTMEEFIKTALDKFPGISAGGSAGGSAGGS [r4_191_TrROS] | 0.415 ± 0.28
29 | SAGGSAKKKTIELTIVIKIKKKPGETAEEIAKKILDALKKLLPPGAKIEIEVEVKDDYIVIKVKIESAGGSA [r15_739_TrROS_Hall] | 2.69 ± 0.13
30 | SMLIVAEGDTVTVELIATYTVVERDPDDPNRYTLRAFPLPLTFTVDPNDPEALRRFLEAAPPGFTPVIVGSA [r9_476_TrMRF] | 3.17 ± 0.13
31 | SAGGSDKEHDVEIKINIYVHDDGYIHIDIEVYNPGSPRPIMKFTIHIPAKDMQKKTGRPMTLEDILSAGGSA [r2_180_TrROS] | 2.38 ± 0.2
